T1: pS16 PLN peptide VI (biotin-HPDP-Cys-EKVQYLTRSAIRRApSTIEMPQQARQ-NH2) (phosphoserine at Ser 16 (pS in the printed sequence); biotin-HPDP on the N-terminal Cys (cysteine persulphide); C-terminal amidation)
T1 construct: added N-terminal cysteine residue that carries biotin-HPDP; phospholamban (PLN), stretch of the cytoplasmic regulatory domain, phosphorylated at Ser 16; also called p16S PLN peptide; source: synthetic peptide (Bachem, Switzerland)
T1 peptide: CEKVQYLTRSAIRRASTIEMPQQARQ

T2: PLN peptide V (biotin-HPDP-Cys-EKVQYLTRSAIRRASTIEMPQQARQ-NH2) (biotin-HPDP on the N-terminal Cys (cysteine persulphide); C-terminal amidation)
T2 construct: added N-terminal cysteine residue that carries biotin-HPDP; phospholamban (PLN), stretch of the cytoplasmic regulatory domain; also called non-phosphorylated PLN peptide; source: synthetic peptide (Bachem, Switzerland)
T2 peptide: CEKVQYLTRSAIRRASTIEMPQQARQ

T3: pS16 PLN peptide VI (biotin-HPDP-Cys-EKVQYLTRSAIRRApSTIEMPQQARQ-NH2) (phosphoserine at Ser 16 (pS in the printed sequence); biotin-HPDP on the N-terminal Cys (cysteine persulphide); C-terminal amidation)
T3 peptide: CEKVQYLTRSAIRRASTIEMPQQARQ

T4: PLN peptide V (biotin-HPDP-Cys-EKVQYLTRSAIRRASTIEMPQQARQ-NH2) (biotin-HPDP on the N-terminal Cys (cysteine persulphide); C-terminal amidation)
T4 peptide: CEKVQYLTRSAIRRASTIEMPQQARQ


What was measured:
[1] = biological target: T1, pS16 PLN peptide VI …; test: SPR; Biacore T200; peptide V or VI immobilised on streptavidin SA chip (50-100 RU); VHH as analyte, single-cycle kinetics with five increasing concentrations; PBS pH 7.4 + 0.05% Tween 20; 1:1 Langmuir model; conditions: both partners purified
[2] = biological target: T2, PLN peptide V …; test: as above; conditions: both partners purified
[3] = biological target: T3, pS16 PLN peptide VI …; test: SPR; pS16 phosphorylated
[4] = biological target: T4, PLN peptide V …; test: SPR
[5] = biological target: T3, pS16 PLN peptide VI …; test: SPR; pS16 phosphorylated; kinetic fit
[6] = biological target: pS16 PLN peptide VI (biotin-HPDP-Cys-…p…-NH2); test: SPR; Biacore T200; peptide V or VI immobilised on streptavidin SA chip (50-100 RU); VHH as analyte, single-cycle kinetics with five increasing concentrations; PBS pH 7.4 + 0.05% Tween 20; 1:1 Langmuir model
[7] = biological target: T1, pS16 PLN peptide VI …; test: SPR; Biacore T200; peptide V or VI immobilised on streptavidin SA chip (50-100 RU); VHH2 as analyte, single-cycle kinetics; PBS pH 7.4 + 0.05% Tween 20; bivalent analyte model; apparent Kd; conditions: both partners purified
[8] = biological target: T2, PLN peptide V …; test: as above; conditions: both partners purified
[9] = biological target: T4, PLN peptide V …; test: SPR

Row | Binder | Kd [1] [nM] | Kd [2] [nM] | koff [3] [s⁻¹] | koff [4] [s⁻¹] | Kd [5] [nM] | Kd [6] [nM] | Kd [7] [nM] | Kd [8] [nM] | Kd [9] [nM]
1 | VHH B4 (VHH, VHH B4, from the synthetic LlamdA phage-display VHH library (llama VHH framework); also called clone B4; source: E. coli HB2151, small-scale cultures induced with IPTG (ELISA); expressed and purified according to previously described protocols (SPR)) VHH: EVQLQESGGGLVQAGGSLRLSCAASGFSFYRHAMGWFRQAPGKEREWVAEIDWEGGYTYYADSVKGRFTISRDNAKNTVYLQMNSLKPEDTAVYYCAAGRDLYAYWGQGTQVTVSS | 682 | 44 | 0.18 | 0.025 | 618 |  |  |  | 
2 | VHH C6 (VHH) VHH: EVQLQESGGGLVQAGGSLRLSCAASGFTLYAMGWFRQAPGKEREFVAAITPHGSTTYYADSVKGRFTISRDNAKNTVYLQMNSLKPEDTAVYYCHTYYSGSWGQGTQVTVSS |  |  | 0.33 |  |  | 680 |  |  | 
3 | VHH2 B4B4 (VHH, N-terminal VHH B4 domain; (Gly3Ser)3 linker, as named in the methods and encoded by the printed primers; C-terminal VHH B4 domain; Bivalent VHH on one chain; also called bivalent variant of VHH B4; bivalent VHH2 B4B4; source: E. coli HB2151 (pHEN4 vector); expressed and purified according to previously described protocols) EVQLQESGGGLVQAGGSLRLSCAASGFSFYRHAMGWFRQAPGKEREWVAEIDWEGGYTYYADSVKGRFTISRDNAKNTVYLQMNSLKPEDTAVYYCAAGRDLYAYWGQGTQVTVSSGGGSGGGSGGGSEVQLQESGGGLVQAGGSLRLSCAASGFSFYRHAMGWFRQAPGKEREWVAEIDWEGGYTYYADSVKGRFTISRDNAKNTVYLQMNSLKPEDTAVYYCAAGRDLYAYWGQGTQVTVSS |  |  | 0.0052 | 0.00011 |  |  | 1 | 0.15 | 0.1
